The labels stand for the following.
B1: glmS ribozyme (parent)
chain: AUAAAAGCGCCAGAACUACAGAAAUGUAGUUGACGAGGAGGAGGUUUAUCGAAUUUUCGGCGGAUGCCUCCAAA

In data set [1] the parent is B1. As to the kind of experiment: self-cleavage kobs at 640 uM GlcN6P; higher = faster cleavage; RNA array. Conditions: with glucosamine-6-phosphate. In outline: (§1)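 Over ~14 h at 37 °C, tiles were imaged as glucosamine-6-phosphate (40 μM to 10 mM) in HEPES/KCl/Mg(OAc)2 buffer flowed across sequenced MiSeq chips. The chips carried barcoded ribozyme variants transcribed in situ by E. coli RNA polymerase and tracked with a hybridised Cy3 probe. After normalisation to baseline and to non-cleaving reference variants, one- or two-exponential decay fits of per-tile medians gave kobs. kcat and KM followed from weighted Michaelis–Menten fits across concentrations.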

Variants of B1 are the subject of data set [2]. Nature of the data set: self-cleavage kobs at 2500 uM GlcN6P; higher = faster cleavage; RNA array. Conditions: with glucosamine-6-phosphate. The method, boiled down:
as §1

± gives the standard error. Fewer inactive variants are shown than the library holds.

Regarding AUAAAAGCGCCAGAACUACAGAAAUGUAGUUGACCACGCGGAGGUUUAUCGAAUUUUCGGCGCAUGCCUCCAAA [G35C G37C A39C G63C], in the data set with glucosamine-6-phosphate [1], the “self-cleavage kobs at 640 uM GlcN6P” value is less than 1e-05 s⁻¹. The “self-cleavage kobs at 2500 uM GlcN6P” value with glucosamine-6-phosphate [2] is less than 1e-05 s⁻¹.

On to AUAAAAGCGGCAGCACUACAGAAAUGUAGUUGACGAGGAGGAGCUUUAUCCAAUUUUCGGCGGAUGCCUCCAAA [C10G A14C G44C G51C], for which, in the data set with glucosamine-6-phosphate [1], the “self-cleavage kobs at 640 uM GlcN6P” value is less than 1e-05 s⁻¹.

In the case of AUAAAAGCGCCAGAACUACAGAAAUGUAGUUUACUAGGAGGUGGUUUAUCGAAUUAACGGCUGAUGCCUCCAAA [G32U G35U A42U U56A U57A G62U], the “self-cleavage kobs at 640 uM GlcN6P” value with glucosamine-6-phosphate [1] is less than 1e-05 s⁻¹. Further, in the data set with glucosamine-6-phosphate [2], the “self-cleavage kobs at 2500 uM GlcN6P” value was less than 1e-05 s⁻¹.

With AUAAAAGCUCCAGAGCUACAGAAAUGUAGUUGACGAGGAGGAGGUUUAUCGAAUAUUCGGCGGAUGCCUCCAAA [G9U A15G U55A], the “self-cleavage kobs at 640 uM GlcN6P” value with glucosamine-6-phosphate [1] was less than 1e-05 s⁻¹.

With AUAAAAGCGCCAGAACUACAGAAAUGUAGUUGACGAGGAAGAGGUUUUUCGAAUUAUCUGCGGAUGCAUCCAAA [G40A A48U U56A G59U C68A], the “self-cleavage kobs at 640 uM GlcN6P” value with glucosamine-6-phosphate [1] was less than 1e-05 s⁻¹. For the same variant, in the data set with glucosamine-6-phosphate [2], the “self-cleavage kobs at 2500 uM GlcN6P” value is less than 1e-05 s⁻¹.

As for AUAAAAGCGCCAGAACUACAGAAAUGUAGUUGAAGAGGAGGAUGUUUAUCGAAUGUGCGGAGGAUGCCUCCAAA [C34A G43U U55G U57G C61A], in the data set with glucosamine-6-phosphate [1], the “self-cleavage kobs at 640 uM GlcN6P” value was less than 1e-05 s⁻¹.

AUAAACGCGCCAGAACUACAGAAAUGUAGUUGACGAGGAGGACGUUUAUCGAAUUUUCGGCGGAUGCCUCUAAA [A6C G43C C71U]: in the data set with glucosamine-6-phosphate [1], the “self-cleavage kobs at 640 uM GlcN6P” value was less than 1e-05 s⁻¹.

For AUAAAAGCACCAGAAUUACAGAAAUGUAGGUGACGAGUAGGAGGUUUAUCGAAUUUUCGGCGGAUGCCUCCAAA [G9A C16U U30G G38U], in the data set with glucosamine-6-phosphate [1], the “self-cleavage kobs at 640 uM GlcN6P” value is less than 1e-05 s⁻¹. Further, the “self-cleavage kobs at 2500 uM GlcN6P” value with glucosamine-6-phosphate [2] was less than 1e-05 s⁻¹.

As for AUAAAAGCGCCAGAACUACAGAAAUGUAGUUGUCGAGGAGCAGGUUUAUCGCUUUUUCGGCGGGGGCCUGCAAA [A33U G41C A52C A53U A64G U65G C70G], the “self-cleavage kobs at 640 uM GlcN6P” value in the data set with glucosamine-6-phosphate [1] is less than 1e-05 s⁻¹.

AUAAAAGCGCCAGAACUACAGAAAUGUAGUUGACGAGGAGGAGGUGUAUCGAAUCUUCGGCGGAUGACUCCAAA [U46G U55C C67A]: in the data set with glucosamine-6-phosphate [1], the “self-cleavage kobs at 640 uM GlcN6P” value came out at 8.32e-05 ± 1.9e-05 s⁻¹. The “self-cleavage kobs at 2500 uM GlcN6P” value with glucosamine-6-phosphate [2] amounted to 6.57e-05 ± 1.5e-05 s⁻¹.

For the variant AUAAAAGCGCCAGUACUACAGAAAUGUAGUUGACGCGGAGGAGAUUUAUCGAAUCUUCGGAGGAUGCCUCCAAA [A14U A36C G44A U55C C61A], the “self-cleavage kobs at 640 uM GlcN6P” value with glucosamine-6-phosphate [1] was less than 1e-05 s⁻¹.

Regarding AUAAAAGCGCCAGUACUACAGAAAUGUAUUUGACGAGGAGGAGGUUUAUGGAAUUUUCGGCGGAUGCCUCCAAA [A14U G29U C50G], the “self-cleavage kobs at 640 uM GlcN6P” value with glucosamine-6-phosphate [1] turned out to be 8.61e-05 ± 3.2e-05 s⁻¹.

AUAAAAGCGCCAGAACUACAGAAAUGUAGUUGACGUGGAGGAUGUUUAUCGAAUUUUCGGCGGAUGCCUCCAAA [A36U G43U]: the “self-cleavage kobs at 640 uM GlcN6P” value with glucosamine-6-phosphate [1] was less than 1e-05 s⁻¹. In addition, the “self-cleavage kobs at 2500 uM GlcN6P” value with glucosamine-6-phosphate [2] was less than 1e-05 s⁻¹.

Take AUAAAAGCGUCAGAAGUACAGAAAUGUAGUGGCCGAGGAGGAGGUUUAUCGAAUUUUCGGCGGAUGCCUGCAAA [C10U C16G U31G A33C C70G]: the “self-cleavage kobs at 640 uM GlcN6P” value with glucosamine-6-phosphate [1] is less than 1e-05 s⁻¹.

With AUAAAAGCGCCAGAACUACAGAAAUGUAGUUGAGGAGGAGGACGUUUAUCGGAUUUUCGGCGGAUGCCUCCAAA [C34G G43C A52G], in the data set with glucosamine-6-phosphate [1], the “self-cleavage kobs at 640 uM GlcN6P” value was less than 1e-05 s⁻¹. Besides, the “self-cleavage kobs at 2500 uM GlcN6P” value in the data set with glucosamine-6-phosphate [2] is less than 1e-05 s⁻¹.

For AUAAAAGCGCCAGAACUACAGAAAUGUAGUCGACGAGGAGGGGGUUUAUCGAAUUUUCGGCGGAUGCCUUCAAA [U31C A42G C70U], the “self-cleavage kobs at 640 uM GlcN6P” value in the data set with glucosamine-6-phosphate [1] was 0.000788 ± 0.00029 s⁻¹.

With AUAAAAGCGCCAGAAUUACAGAAAUGUAGUUGACGAGGAGGAGGUUUAUCGAAUUUUCGGCGGAUGGCUUCAAA [C16U C67G C70U], the “self-cleavage kobs at 640 uM GlcN6P” value with glucosamine-6-phosphate [1] was 5.74e-05 ± 2e-05 s⁻¹. Further, in the data set with glucosamine-6-phosphate [2], the “self-cleavage kobs at 2500 uM GlcN6P” value came out at 7.27e-05 ± 2e-05 s⁻¹.

Take AUAAAAGCGCCAGAACUACAGAAAUGUAGUUGACGAGGAGGAGGUUUAUCGAAUUUUCGGCACAUGCCUAUAAA [G62A G63C C70A C71U]: in the data set with glucosamine-6-phosphate [1], the “self-cleavage kobs at 640 uM GlcN6P” value was 5.14e-05 ± 2.3e-05 s⁻¹.

As to AUAAAAGCGCCAGAACUACAGAAAUGUAGCUGACGAGGAGGAGGUUUAUCGAAUUUUCCGCGUAUGCCUCCAAA [U30C G59C G63U], the “self-cleavage kobs at 640 uM GlcN6P” value in the data set with glucosamine-6-phosphate [1] was less than 1e-05 s⁻¹.

With AUAAAAGCGCCAGAACUACAGAAAUGUAGUUGACGAGGAGGAGGUUUAUCGGAUUUUGGGCGGACGCCUCCAAA [A52G C58G U65C], the “self-cleavage kobs at 640 uM GlcN6P” value in the data set with glucosamine-6-phosphate [1] is less than 1e-05 s⁻¹.

For AUAAAAGCCCCAGAACUACAGAAAUGUAGUUGACGAGGAGGAGGUUUAUCGAAUUUUCGGCGGAUGACUCUAAA [G9C C67A C71U], the “self-cleavage kobs at 640 uM GlcN6P” value with glucosamine-6-phosphate [1] was less than 1e-05 s⁻¹. In addition, the “self-cleavage kobs at 2500 uM GlcN6P” value with glucosamine-6-phosphate [2] is less than 1e-05 s⁻¹.

AUAAAAGCGCCAGAAUUACAGAAAUGUAGUUGACGAGGAGGAGGUUUCUCGAAUUUUCGGCUGAUGCCUCCAAA [C16U A48C G62U]: in the data set with glucosamine-6-phosphate [1], the “self-cleavage kobs at 640 uM GlcN6P” value is less than 1e-05 s⁻¹. Besides, in the data set with glucosamine-6-phosphate [2], the “self-cleavage kobs at 2500 uM GlcN6P” value was less than 1e-05 s⁻¹.

On to AUAAAAGCGCCAGAACUACAGAAAUGUAGUUGACGAGCAGGAGGUUUAUCGAAUUUGCGGCGGAUGCCUCCAAA [G38C U57G], for which the “self-cleavage kobs at 640 uM GlcN6P” value with glucosamine-6-phosphate [1] was less than 1e-05 s⁻¹.

For AUAAACGGGCCAGAACUACAGAAAUGUAGUUGACGAGGAGGAGGUUUAUCGAACUUUCGGCGGAUGCCUCCAAA [A6C C8G U54C], the “self-cleavage kobs at 640 uM GlcN6P” value with glucosamine-6-phosphate [1] is less than 1e-05 s⁻¹.

Consider AUAAAAGCGCCAGAACUACAGAAAUGUAGUGGACGAGGAGGAGGUUUAUCGAAUUUUAGCCGGAUGCCUCCAAA [U31G C58A G60C], for which the “self-cleavage kobs at 640 uM GlcN6P” value with glucosamine-6-phosphate [1] was less than 1e-05 s⁻¹. In addition, the “self-cleavage kobs at 2500 uM GlcN6P” value with glucosamine-6-phosphate [2] is less than 1e-05 s⁻¹.
